From patent US20180251559A1, “Methods for the Modulation of LGALS3BP to Treat Systemic Lupus Erythematosus” (Merck Patent GmbH, priority 2015, published 2018) come the findings set out here.

What all share (type): cell-based
For assay [1], the system named is primary human B cells. The assay is described as follows: Viability of TLR7 agonist-stimulated B cells (CellTiter-Glo, ATP). To be noted: for IC50: pre-incubated 30 minutes, TLR7 agonist for 5 days, CellTiter-Glo. On the procedure: (§1) A library of conditioned cell culture supernatants with secreted proteins was added and IgG secretion and cell viability (CTG, CellTiter-Glo) measured at the end of culture.
B cell viability was measured 5 days later by CellTiter-Glo.
(§2) To identify secreted proteins that affect IgG production by B cells a selection of proteins from the human secretome in an IgG secretion assay were screened using primary human B cells. B cells from healthy volunteers were exposed to 1400 recombinantly expressed secreted proteins before activation with a TLR7 small molecule agonist. After 5 days IgG was measured to identify proteins that enhance or inhibit IgG secretion. […] LGALS3BP was independently identified as the most differentially regulated gene in blood from lupus nephritis patients compared to healthy volunteers.
(§3) Primary B cells from healthy human donors were stimulated in the presence of galectin-3 inhibitors in order to determine if galectin-3 plays a role in the function of LGALS3BP in B cell biology. Specifically, freshly isolated B cells from healthy volunteers were pre-incubated with galectin-3 (Gal-3) inhibitors for 30 minutes before stimulation with TLR7 agonist for 5 days. Supernatants were harvested and IgG measured by AlphaLISA. Cell viability was measured by CellTiter-Glo (ATP production).
A general note: In ATP-based viability assays light output follows the ATP content of the culture.

Assay [2] has as its system primary human B cells. In words: IgG secretion by stimulated primary human B cells (AlphaLISA). To be noted: for IC50: pre-incubated 30 minutes, TLR7 agonist for 5 days, AlphaLISA, read-out: IgG production. On the procedure: as §1
IgG was measure by AlphaLISA 5 days after stimulation.
FIG. 3A-1 and FIG. 3A-2 show data from isolated primary human B cells that were stimulated with small molecule TLR7 agonist in the presence of potential LGALS3BP inhibitors and controls (left). Anti-LGALS3BP antibody was added to primary human B cells activated with CpG or anti-IgM/CD40L/CpG (right). IgG secretion was measured 5 days later by AlphaLISA.
as §2
(§4) The effect of anti-LGALS3BP antibodies on IgG secretion by primary human B cells was evaluated. IgG secretion by TLR7 activated B cells was inhibited by almost 90% in presence of anti-LGALS3BP antibody or anti-LGALS3BP F(ab′)2 (74%) to exclude inhibition through FcγRIIb present on B cells (FIGS. 3A-1 and 3A-2). […] The same inhibitory effect of the LGALS3BP antibody was observed when B cells were activated with CpG (94%) or anti-IgM/CD40L/CpG (77%). IgM secretion was inhibited by antibody blockade as well excluding a role of LGALS3BP in isotype switching (FIG. 3B-1, FIG. 3B-2 and FIG. 3B-3). […] IL-6 secretion was measured to investigate if LGALS3BP blockade interferes with TLR7 activation and signaling thereby reducing B cell proliferation. A 37% decrease in IL-6 production was observed 48 h after B cell stimulation in the presence of anti-LGALS3BP antibody. This reduction was LGALS3BP specific and not mediated through FcγRIIb given the same effect was measured in the presence of Fc block or with anti-LGALS3BP F(ab′)2. Lactose also had the same effect, thereby, excluding a direct effect of the antibody through cross-linking the surface-bound protein. […] To test if anti-LGALS3BP antibodies reduce B cell survival by blocking B cell activation CD69 upregulation was measured 16 h after activation with TLR7 agonist (FIG. 3C-1, FIG. 3C-2 and FIG. 3C-3). No difference in percentage of CD69^+ activated cells or expression levels of CD69 was observed when an anti-LGALS3BP antibody was added. LGALS3BP blockade inhibits IgG secretion independent of the stimulation protocol used. To determine if LGALS3BP blockade has an effect on B cell survival in the absence of stimulation additional experiments were conducted. Adding the antibody to non-stimulated B cells reduced viability by 66% (FIG. 3D-1 and FIG. 3D-2). This effect was most pronounced in B cells.
as §3
A general note: Bead proximity is the source of the signal in Alpha formats.

Assay [3] concerns primary human B cells. In words: IL-6 secretion by TLR7 agonist-activated B cells (AlphaLISA). To be noted: 48 h after B cell stimulation with TLR7 agonist. The procedure: IL-6 secretion was measured 2 days after stimulation by AlphaLISA.
as §4, with “F(ab′)2.” for “F(ab′)2. Lactose also had the same effect, thereby, excluding a direct effect of the antibody through cross-linking the surface-bound protein.”, “No difference in percentage of CD69^+ activated cells or expression levels of CD69 was observed when an anti-LGALS3BP antibody was added. LGALS3BP blockade inhibits IgG secretion independent of the stimulation protocol used. To determine if LGALS3BP blockade has an effect on B cell survival in the absence of stimulation additional experiments were conducted. Adding the antibody to non-stimulated B cells reduced viability by 66% (FIG. 3D-1 and FIG. 3D-2). This effect was most pronounced in B cells.” left out

Assay [4] deals with primary human macrophages. In words: LGALS3BP induction in in vitro differentiated macrophages (QPCR, ELISA). The source says: Expression between samples was normalized using HPRT1 as a housekeeping gene. […] LGALS3BP has an IRF binding site consistent with regulation by type I interferons. To determine which pathways can induce LGALS3BP expression, primary human monocytes were differentiated into macrophages in vitro and subsequently were stimulated with IFN-α, IFN-γ, TLR4 agonist (LPS), TLR7/8 agonist (resiquimod) and TLR9 agonist (CpG). […] All stimuli induced secretion of IL-6.
Background: In an ELISA, binding on a coated surface is turned into a signal by an enzyme label.

For assay [5], the system named is primary human B cells. In words: B cell activation, CD69 expression by flow cytometry. To be noted: 16 h after stimulation with TLR7 agonist. The procedure: FIG. 2A-1 and FIG. 2A-2 show data from B cells stimulated with small molecule TLR7 agonist in the presence of increasing concentrations of purified recombinant LGALS3BP. B cell activation was measured 16 h later by flow cytometry quantifying CD69 expression.
To investigate if addition of LGALS3BP affects activation of naïve B cells CD69 expression was measured 16 h after stimulation with TLR7 agonist. All B cells had increased CD69 expression compared to non-stimulated cells but no change was seen upon addition of various concentrations of recombinant LGALS3BP (FIG. 2A-1 and FIG. 2A-2). The localization of endogenous LGALS3BP in primary human B cells with an antibody specific for LGALS3BP was then evaluated (FIG. 2b). […]
The effect of anti-LGALS3BP antibodies on IgG secretion by primary human B cells was evaluated. […] IL-6 secretion was measured to investigate if LGALS3BP blockade interferes with TLR7 activation and signaling thereby reducing B cell proliferation. […] This reduction was LGALS3BP specific and not mediated through FcγRIIb given the same effect was measured in the presence of Fc block or with anti-LGALS3BP F(ab′)2. […] To test if anti-LGALS3BP antibodies reduce B cell survival by blocking B cell activation CD69 upregulation was measured 16 h after activation with TLR7 agonist (FIG. 3C-1, FIG. 3C-2 and FIG. 3C-3). […]

For the molecule `CCCO[C@@H]1O[C@H](CO)[C@@H](O[C@@H]2O[C@H](CO)[C@H](O)[C@H](O)[C@H]2O)[C@H](O)[C@H]1O` [Beta n-propal lactoside, reference compound], the IC50 with primary human B cells [1] and in the assay on primary human B cells [2] was over 10 µM in each case.

For the molecule `CC(=O)N[C@H]1C(O)O[C@H](CO)[C@@H](O[C@@H]2O[C@H](CO)[C@H](O)[C@H](O)[C@H]2O)[C@@H]1O` (stereo partly drawn) [LacNAc, N-Acetyl-D-lactosamine, N-Acetyl-D-lactosamine, reference compound], the IC50 is over 10 µM with primary human B cells [1] (Homo sapiens, B-cell) and over 10 µM in the assay on primary human B cells [2] (Homo sapiens, B-cell).

`OC[C@H]1O[C@@H](O[C@H]2[C@H](O)[C@@H](O)C(O)O[C@@H]2CO)[C@H](O)[C@@H](O)[C@H]1O` (stereo partly drawn) [Lactose, reference compound]: the “inhibition of IgG secretion” value with primary human B cells [2] (TLR7 activated B cells, 5 days) is 59%. Also, in the assay with primary human B cells [3], the “IL-6 production, effect in words” value is recorded as “same effect”.

As for `OC[C@H]1O[C@@](CO)(O[C@H]2O[C@H](CO)[C@@H](O)[C@H](O)[C@H]2O)[C@@H](O)[C@@H]1O` [sucrose, reference compound], the “IgG secretion, effect in words” value in the assay with primary human B cells [2] (TLR7 activated B cells) is recorded as “did not inhibit IgG secretion”.

B1: IFN-γ: interferon used as macrophage stimulus (protein, UniProt P01579 24-161, looked up)
Interferon gamma: QDPYVKEAENLKKYFNAGHSDVADNGTLFLGILKNWKEESDRKIMQSQIVSFYFKLFKNFKDDQSIQKSVETIKEDMNVKFFNSNKKKRDDFEKLTNYSVTDLNVQRKAIHELIQVMAELSPAAKTGKRKRSQMLFRG
B1: the “secretion of the LGALS3BP protein” value in assay [4] (ELISA in supernatants, stimuli for 20 h) was “increased secretion”. Moreover, in assay [4] (QPCR, stimuli for 6 h), the “LGALS3BP mRNA expression” value is recorded as “induced”.

B2: LGALS3BP: secreted scavenger receptor family protein, full length human sequence SEQ ID NO: 1; used as recombinant protein (protein, listed as Homo sapiens)
chain: MTPPRLFWVWLLVAGTQGVNDGDMRLADGGATNQGRVEIFYRGQWGTVCDNLWDLTDASVVCRALGFENATQALGRAAFGQGSGPIMLDEVQCTGTEASLADCKSLGWLKSNCRHERDAGVVCTNETRSTHTLDLSRELSEALGQIFDSQRGCDLSISVNVQGEDALGFCGHTVILTANLEAQALWKEPGSNVTMSVDAECVPMVRDLLRYFYSRRIDITLSSVKCFHKLASAYGARQLQGYCASLFAILLPQDPSFQMPLDLYAYAVATGDALLEKLCLQFLAWNFEALTQAEAWPSVPTDLLQLLLPRSDLAVPSELALLKAVDTWSWGERASHEEVEGLVEKIRFPMMLPEELFELQFNLSLYWSHEALFQKKTLQALEFHTVPFQLLARYKGLNLTEDTYKPRIYTSPTWSAFVTDSSWSARKSQLVYQSRRGPLVKYSSDYFQAPSDYRYYPYQSFQTPQHPSFLFQDKRVSWSLVYLPTIQSCWNYGFSCSSDELPVLGLTKSGGSDRTIAYENKALMLCEGLFVADVTDFEGWKAAIPSALDTNSSKSTSSFPCPAGHFNGFRTVIRPFYLTNSSGVD
Regarding B2, the “CD69 expression / percentage of CD69+ activated cells” value with primary human B cells [5] was “no change”. Further, the “cell viability and metabolic activity (ATP measured by CellTiter-Glo assay)” value in the assay on primary human B cells [1] (secretome screen, TLR7 small molecule agonist, 5 days) is given as “doubled”. Moreover, the “increase in IgG” value in the assay with primary human B cells [2] (purified recombinant protein, B cells stimulated with TLR9 agonist CpG) was 1.9 fold; in the assay on primary human B cells [2] (purified recombinant protein, activation cocktail with anti-IgM, CD40L and CpG) it was 1.2 fold. Also, the “enhanced IgG production” value in the assay with primary human B cells [2] (purified recombinant protein, TLR7 agonist, B cells from 6 healthy volunteers, 5 days) is reported as 1.6 fold. The “enhanced IgG secretion” value in the assay on primary human B cells [2] (secretome screen, recombinantly expressed secreted proteins, TLR7 small molecule agonist, 5 days) was determined as 4.1 fold.
